For this series the following is noted: Aspergillus oryzae (strain ATCC 42149 / RIB 40), Thermal, DSC, glycine 0.05 M, reversible: yes, whole UniProt chain shown.

B1: Guanyl-specific ribonuclease T1 wild type, P00651 (protein)
chain: MMYSKLLTLTTLLLPTALALPSLVERACDYTCGSNCYSSSDVSTAQAAGYQLHEDGETVGSNSYPHKYNNYEGFDFSVSSPYYEWPILSSGDVYSGGSPGADRVVFNENNQLAGVITHTGASGNNFVECT
Broadly, the Tm is the temperature at the midpoint of the melting transition. In the case of B1, the Tm is 39.2 °C (pH 2), 45.6 °C (pH 2.5), 50.5 °C (pH 3) and 63.3 °C (pH 4). Besides, the “unfolding enthalpy (calorimetric)” value turned out to be 82 kcal/mol (pH 2), 89.4 kcal/mol (pH 2.5), 97.3 kcal/mol (pH 3) and 110 kcal/mol (pH 4). The “heat capacity change of unfolding” value (pH 3, 40 °C) stood at 1.19 kcal/mol/K. For the same protein, the unfolding free energy (pH 3, 40 °C) was determined as 2.94 kcal/mol.

(Values after FireProtDB (doi:10.1111/j.1399-3011.1991.tb01525.x).)
